Results as given in article doi:10.1101/2022.06.02.493408 (bioRxiv, 2022).
Like-named read-outs stand apart in the source and are kept apart here.

Assays:
[1] = molecular target: WT BetP reconstituted in amphipol A8-35 (AMP-BetP) (Corynebacterium glutamicum) (UniProt P54582); experiment: cryo-EM structure
[2] = molecular target: WT BetP reconstituted in amphipol A8-35 (AMP-BetP) (Corynebacterium glutamicum) (UniProt P54582); experiment: cryo-EM structure; remark: listed apart in the source
crystal structure = molecular target: the molecule itself; experiment: crystal structure

Sequence of WT BetP reconstituted in amphipol A8-35 (AMP-BetP) (P54582 whole entry): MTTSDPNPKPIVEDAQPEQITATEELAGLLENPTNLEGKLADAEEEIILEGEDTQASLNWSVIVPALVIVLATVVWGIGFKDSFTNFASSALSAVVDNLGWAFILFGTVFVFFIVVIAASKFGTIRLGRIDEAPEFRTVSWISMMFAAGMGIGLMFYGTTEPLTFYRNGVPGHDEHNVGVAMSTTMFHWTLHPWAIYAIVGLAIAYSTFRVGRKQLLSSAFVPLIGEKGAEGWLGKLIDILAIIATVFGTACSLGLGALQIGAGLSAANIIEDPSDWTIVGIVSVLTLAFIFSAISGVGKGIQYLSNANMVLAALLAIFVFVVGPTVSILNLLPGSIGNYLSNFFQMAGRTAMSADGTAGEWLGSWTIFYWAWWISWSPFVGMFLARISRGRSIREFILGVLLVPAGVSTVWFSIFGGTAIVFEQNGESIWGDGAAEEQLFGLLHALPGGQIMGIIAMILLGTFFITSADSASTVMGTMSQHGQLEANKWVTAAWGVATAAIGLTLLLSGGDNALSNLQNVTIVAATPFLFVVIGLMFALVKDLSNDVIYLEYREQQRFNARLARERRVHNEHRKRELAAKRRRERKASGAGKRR

Molecule	stoichiometry N [1]	stoichiometry N [2]	stoichiometry N (crystal structure)
WT BetP reconstituted in amphipol A8-35 (AMP-BetP) (from UniProt P54582 1-595) (natural protein)	3	3	
BetP-ΔN29/E44E45E46/AAA (crystallization mutant BetP^cryst) (natural protein, Corynebacterium glutamicum, UniProt P54582 30-595, looked up) LENPTNLEGKLADAAAAIILEGEDTQASLNWSVIVPALVIVLATVVWGIGFKDSFTNFASSALSAVVDNLGWAFILFGTVFVFFIVVIAASKFGTIRLGRIDEAPEFRTVSWISMMFAAGMGIGLMFYGTTEPLTFYRNGVPGHDEHNVGVAMSTTMFHWTLHPWAIYAIVGLAIAYSTFRVGRKQLLSSAFVPLIGEKGAEGWLGKLIDILAIIATVFGTACSLGLGALQIGAGLSAANIIEDPSDWTIVGIVSVLTLAFIFSAISGVGKGIQYLSNANMVLAALLAIFVFVVGPTVSILNLLPGSIGNYLSNFFQMAGRTAMSADGTAGEWLGSWTIFYWAWWISWSPFVGMFLARISRGRSIREFILGVLLVPAGVSTVWFSIFGGTAIVFEQNGESIWGDGAAEEQLFGLLHALPGGQIMGIIAMILLGTFFITSADSASTVMGTMSQHGQLEANKWVTAAWGVATAAIGLTLLLSGGDNALSNLQNVTIVAATPFLFVVIGLMFALVKDLSNDVIYLEYREQQRFNARLARERRVHNEHRKRELAAKRRRERKASGAGKRR			3
